# Target: T1, CD40 expressed on Ramos [ATCC] cells (UniProt P25942 21-277, limits assumed)
# T1 construct: whole, on cells; Target of all flow cytometry and CD95 assays; endogenous CD40 on the Ramos cell line
# Experiment: flow cytometry (FACS) on Ramos cells expressing CD40, R-PE anti-human antibody
# T1 sequence (P25942 21-277 limits assumed): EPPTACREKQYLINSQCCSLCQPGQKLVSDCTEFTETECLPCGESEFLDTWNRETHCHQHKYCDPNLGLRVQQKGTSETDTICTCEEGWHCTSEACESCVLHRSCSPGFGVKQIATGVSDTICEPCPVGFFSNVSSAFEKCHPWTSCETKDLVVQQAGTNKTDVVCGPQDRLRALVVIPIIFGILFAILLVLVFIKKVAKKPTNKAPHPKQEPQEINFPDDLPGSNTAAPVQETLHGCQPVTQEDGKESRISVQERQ
row,binding result,Binder
1,binds,"4D11-G3[R435H] (antibody, V domains shown, One-amino acid variant of 4D11-G3; also called IgG3[R435H]; N5KG3-R435H; not shown: human IgG3 heavy chain constant region, from vector N5KG3) VH: QLQLQESGPGLLKPSETLSLTCTVSGGSISSPGYYGGWIRQPPGKGLEWIGSIYKSGSTYHNPSLKSRVTISVDTSKNQFSLKLSSVTAADTAVYYCTRPVVRYFGWFDPWGQGTLVTVSS VL: AIQLTQSPSSLSASVGDRVTITCRASQGISSALAWYQQKPGKAPKLLIYDASNLESGVPSRFSGSGSGTDFTLTISSLQPEDFATYYCQQFNSYPTFGQGTKVEIK"
2,binds,"341-G [2/2/1/2] (antibody, also called IgG[2/2/1/2]; N5KG2212; not shown: human IgG2 heavy chain constant region, CH1 and hinge domains (EU 118-237), from vector N5KG2; human IgG1 heavy chain constant region, CH2 domain (EU 238-340), from vector N5KG1 by way of N5KG2211; human IgG2 heavy chain constant region, CH3 domain (EU 341-446), from vector N5KG2) heavy: QVQLQQSGPGLVKPSQTLSLTCAISGDSVSSNSATWNWIRQSPSRDLEWLGRTYYRSKWYRDYVGSVKSRIIINPDTSNNQFSLQLNSVTPEDTAIYYCTRAQWLGGDYPYYYSMDVWGQGTTVTVSS VL: EIVLTQSPATLSLSPGERATLSCRASQSVSSYLAWYQQKPGQAPRLLIYDASNRATGIPARFSGSGSGTDFTLTISSLEPEDFAVYYCQQRSNTFGPGTKVDIK"
3,binds,"341-G [2/2/2/1] (antibody, also called IgG[2/2/2/1]; N5KG2221; not shown: human IgG2 heavy chain constant region, CH1, hinge and CH2 domains (EU 118-340), from vector N5KG2; human IgG1 heavy chain constant region, CH3 domain (EU 341-446), from vector N5KG1) heavy: QVQLQQSGPGLVKPSQTLSLTCAISGDSVSSNSATWNWIRQSPSRDLEWLGRTYYRSKWYRDYVGSVKSRIIINPDTSNNQFSLQLNSVTPEDTAIYYCTRAQWLGGDYPYYYSMDVWGQGTTVTVSS VL: EIVLTQSPATLSLSPGERATLSCRASQSVSSYLAWYQQKPGQAPRLLIYDASNRATGIPARFSGSGSGTDFTLTISSLEPEDFAVYYCQQRSNTFGPGTKVDIK"

# Reference: patent US20080138335A1 (Kyowa Kirin, published 2008)
